From patent US11447754B2, “In vitro methods of chemical conversion using non-stereospecific glutathione lyases” (WISCONSIN ALUMNI RESEARCH FOUNDATION, priority 2017, dated 2022) come the findings set out here.

Changes are numbered by the printed parent chain. In names and notes the source's numbering stands.

Substrate in series [1]: COc1cc(C(=O)[C@@H](CO)Oc2ccccc2OC)ccc1O
Nature of the series: Kinetics of the enzymatic cleavage of β(R)-MPHPV by LigE. The series is classed as biochemical, Novosphingobium aromaticivorans. The following applies: other: β(R)-MPHPV into GS-HPV, 70 nM enzyme (monomer), 5 mM GSH, pH 8.0, 25° C. The text has this: Enzyme purifications. Genes Saro_2595, E. coli yghU, E. coli yfcG, and SLG_04120 from Sphingobium sp. SYK-6 (codon-optimized for expression in E. coli) were individually cloned into plasmid pVP302K (Gall and Ralph et al. 2014) so that transcripts from the plasmids would be translated into proteins containing a His8-tag connected to the N-terminus via a tobacco etch virus (TEV) protease recognition site. Recombinant proteins were expressed in E. coli B834 (Wood 1966, Doherty et al. 1995) containing plasmid pRARE2 (Novagen, Madison, Wis.) grown for ˜24 h at 27° C. in ZYM-5052 Autoinduction Medium (Studier 2005) containing kanamycin and chloramphenicol. Recombinant proteins were purified essentially as described previously (Gall and Kim et al. 2014); see below for modifications to the procedure. After removal of His8-tags using TEV protease, recombinant proteins retained a Ser-Ala-Ile-Ala-Gly-peptide on their N-termini, derived from the linker between the protein and the TEV protease recognition site. Recombinant LigE and LigF1 from N. aromaticivorans were purified as previously described (Gall and Ralph et al. 2014).
Kinetics of the enzymatic cleavage of β(R)-MPHPV. Various concentrations of racemic MPHPV (equal amounts of the β(S)- and β(R)-stereoisomers) were combined with 5 mM GSH in RB. At time zero, 100 μL of a given enzyme in RB+5 mM GSH was combined with 1000 μL of the racemic MPHPV/GSH sample at 25° C. (both samples were equilibrated to 25° C. before mixing). […] At specified time points, 200 μL of a reaction was removed and combined with 40 μL of 1 M HCl (Acros Organics) to stop the reaction before HPLC analysis to quantify GS-HPV formed. […]
(§1) HPLC analysis. Analysis and quantification of aromatic compounds were performed using an Ultra AQ C18 5 μm column (Restek) attached to a System Gold HPLC (Beckman Coulter) with running buffers and methods described in Example 1. The eluent was analyzed for light absorbance between 191 and 600 nm, and absorbances at 280 nm were used for quantification of aromatic metabolites by comparing peak areas to those of standards.

Substrate in series [2]: COc1cc(C(=O)[C@@H](CO)Oc2ccccc2OC)ccc1O
Nature of the series: Kinetics of the enzymatic cleavage of β(R)-MPHPV by BaeA (3:N14A). The following applies: other: β(R)-MPHPV into GS-HPV, 98 nM dimeric enzyme, 5 mM GSH, pH 8.0, 25° C. The class given is biochemical, Novosphingobium aromaticivorans.
From the text: (§2) To generate mutant 2:S14A, pVP302K/2873-H2872 was amplified by kinase phosphorylated primers “Saro2872-S14A_R” and “Saro2872-S14A_F”. To generate mutant 3:S15A, pVP302K/H2873-2872 was amplified by kinase phosphorylated primers “Saro2873-S15A_R” and “Saro2873-S15A_F”. To generate mutant 3:N14A, pVP302K/2873-H2872 was amplified by kinase phosphorylated primers “Saro2873-S15A_R” and “Saro2873-N14A_F”. These linear fragments were separately circularized using T4 DNA ligase to generate plasmids pVP302K/2873-H2872(S14A), pVP302K/H2873(S15A)-2872, and pVP302K/2873(N14A)-H2872, respectively.
(§3) Expression and purification of recombinant enzymes. Recombinant proteins were expressed using the plasmids described above in E. coli B834 containing plasmid pRARE2 (Novagen) grown for ˜25 hours at 25° C. in ZYM-5052 Autoinduction Medium containing kanamycin and chloramphenicol. Recombinant proteins were purified using a Ni^2+-NTA column as described in Example 1 above, except using gravity-flow columns instead of an FPLC system. After removal of His8-tags using Tev protease, recombinant proteins retained a Ser-Ala-Ile-Ala-Gly-peptide on their N-termini, derived from the linker between the protein and the Tev protease recognition site. Recombinant LigF1 was purified as previously described (Gall and Ralph et al. 2014).
(§4) Kinetics of the enzymatic cleavage of β(R)-MPHPV. Various concentrations of racemic MPHPV (equal amounts of the β(S)- and β(R)-stereoisomers) were combined with 5 mM GSH in RB. […] At specified time points, 200 μL of a reaction was removed and combined with 40 μL of 1 M HCl (Acros Organics) to stop the reaction before HPLC analysis to quantify GS-HPV formed. […]
as §1

Substrate in series [3]: COc1cc(C(=O)[C@@H](CO)Oc2ccccc2OC)ccc1O
Nature of the series: Kinetics of the enzymatic cleavage of β(R)-MPHPV by BaeA (3:S15A). Particulars: other: β(R)-MPHPV into GS-HPV, 22 nM dimeric enzyme, 5 mM GSH, pH 8.0, 25° C. The series is classed as biochemical, Novosphingobium aromaticivorans.
From the text: as §2, §3, §4, §1

Series [4] can be described thus: Kinetics of the enzymatic cleavage of β(R)-MPHPV into GS-HPV. The series is classed as biochemical. The method, then:
(§5) Kinetics of the enzymatic cleavage of β(R)-MPHPV. Various concentrations of racemic MPHPV (equal amounts of the β(S)- and β(R)-stereoisomers) were combined with 5 mM GSH in RB. At time zero, 100 μL of a given enzyme in RB+5 mM GSH was combined with 1000 μL of the racemic MPHPV/GSH sample at 25° C. (both samples were equilibrated to 25° C. before mixing). Final concentrations of β(R)-MPHPV in each reaction were 0.0045, 0.010, 0.017, 0.068, or 0.13 mM. Final enzyme concentrations were 18 nM BaeA, 23 nM BaeA (2:S14A), 22 nM BaeA (3:S15A), 24 nM BaeA (2:S14A/3:S15A), 98 nM BaeA (3N14A), or 70 nM LigE (Saro_2405) (all concentrations are for the dimeric enzyme, except for LigE, which is the concentration of the monomer). At specified time points, 200 μL of a reaction was removed and combined with 40 μL of 1 M HCl (Acros Organics) to stop the reaction before HPLC analysis to quantify GS-HPV formed. Control experiments were allowed to proceed for several hours to ensure that only the β(R)-MPHPV in the reaction mixtures was being reacted with in these experiments.
as §1

Substrate in series [5]: COc1cc(C(=O)[C@@H](CO)Oc2ccccc2OC)ccc1O
Put plainly: Kinetics of the enzymatic cleavage of β(R)-MPHPV by BaeA (2:S14A). The class given is biochemical, Novosphingobium aromaticivorans. Particulars: other: β(R)-MPHPV into GS-HPV, 23 nM dimeric enzyme, 5 mM GSH, pH 8.0, 25° C.
From the text: as §2, §3, §4, §1

Substrate in series [6]: COc1cc(C(=O)[C@@H](CO)Oc2ccccc2OC)ccc1O
Nature of the series: Kinetics of the enzymatic cleavage of β(R)-MPHPV by BaeA. Particulars: other: β(R)-MPHPV into GS-HPV, 18 nM dimeric enzyme, 5 mM GSH, pH 8.0, 25° C. The class given is biochemical, Novosphingobium aromaticivorans. As to the method:
as §3
as §5, with “Control experiments were allowed to proceed for several hours to ensure that only the β(R)-MPHPV in the reaction mixtures was being reacted with in these experiments.” left out
as §1

B1: Novosphingobium aromaticivorans LigE (Saro_2405), wild type (Novosphingobium aromaticivorans DSM 12444) (protein)
chain: MAANNTITFYDLALSTGATISPFVWATKYALKHKGFDLDVVPGGFTGILERTGGKTERLPAIVDDGEFVLDSWGIVEYLDAKYPDRPVLIPHESVAATLKALDNWFWNAAVGPWMFCFCQDYRDLSLPQDHEYVTHSREKMLGRKLEEVQAGREERLPKISAALEPLRAALAQHQWLGGSSPNYADYRIMGGILFTASVCKTPVLANDDPLRDWIERCLDLYGGLGRHPGLFPLFGLEQREGDPDLFNRAAGQGGIYKRNTGPESTRAETQRITEGMKK
notes: E. coli expressed
Consider B1, for which, in series [1], the Km (in general, the concentration of substrate that gives half-maximal velocity) turned out to be 7 ± 1 µM; the catalytic constant (kcat) (as a rule, the maximal rate divided by the concentration of active sites) came out at 0.68 ± 0.06 s⁻¹; the kcat/Km (as a rule, the second-order rate constant that governs catalysis at low substrate concentration) was determined as 100000 ± 20000 M⁻¹ s⁻¹.

B2: Novosphingobium aromaticivorans BaeA (Saro_2872/Saro_2873 heterodimer, SEQ ID NO:40/SEQ ID NO:42) variant 3:N14A (Asn14 of Saro_2873 to Ala) (Novosphingobium … (protein)
chain 1: MSALLYHGEPNGASLTVLAALAETGLDIECRRIDLLAGERHSLPGIVDPVALDLSIEGEGPVLVIDGEAMTESVFLAQYLDEAAGGVGLQPTDAYARWEMMMWCRQITERLSPAAALLGNLATSQSAIAAIPAEDFAILAARIVSDDLRERWQALNDDAVNAAQVADSETKVAAAVDRCEKQLGDGREWLMGTFSIADLVTYSWLAGMEPLRPAAFADAPLVKAWLARTAARPCVQAALARATISEPLRAWAPGPEINRWG
chain 2: MDEVSLYHWEPNAASGKPMLALMEKGVPFSSHYIDMLQFDQHKPEYLAINPQGTIPAMTHNGQVLTESTAIMEYVNDRFDGPDLMPADAQDRWRVRWWMKFMDQWLGPSFSMIGWSVFVGPMVRQRDPAELAAAIDRIPLPERRTAWRKAINGDFSESEMAESRRRVGLGIAKLEEELGKRPYVGSNQYSLADINIFNSTYSLPISQPDLAGKDRTPNIMRWLKRVYTREAVKKTWAMGKTDLAHRYGLIMAEIEG
notes: His8 tag on Saro_2872 removed by TEV
In the case of B2, in series [2], the Km was 250 ± 60 µM, the turnover number (kcat) was 0.14 ± 0.02 s⁻¹ and the kcat/Km amounted to 500 ± 200 M⁻¹ s⁻¹.

B3: Novosphingobium aromaticivorans BaeA (Saro_2872/Saro_2873 heterodimer, SEQ ID NO:40/SEQ ID NO:42) variant 3:S15A (Ser15 of Saro_2873 to Ala) (Novosphingobium … (protein)
chain 1: B2 chain 1
chain 2: B2 chain 2 with A14N, S15A
notes: His8 tag on Saro_2873 removed by TEV
Take B3: in series [3], the Km was 100 ± 20 µM, the kcat is 2.4 ± 0.3 s⁻¹ and the kcat/Km stood at 23000 ± 6000 M⁻¹ s⁻¹.

B4: Saro_2872: polypeptide from Novosphingobium aromaticivorans, SEQ ID NO:40; subunit of BaeA (protein)
chain: B2 chain 1
modifications: Novosphingobium aromaticivorans
notes: subunit of BaeA
With B4, the “activity of the Saro_2872 subunit in BaeA relative to the Saro_2873 subunit” value in series [4] (inferred from the 3:N14A variant) was < 5%.

B5: Novosphingobium aromaticivorans BaeA (Saro_2872/Saro_2873 heterodimer, SEQ ID NO:40/SEQ ID NO:42) variant 2:S14A (Ser14 of Saro_2872 to Ala) (Novosphingobium … (protein)
chain 1: B2 chain 1 with S14A
chain 2: B2 chain 2 with A14N
notes: His8 tag on Saro_2872 removed by TEV, SAIAG left on N-terminus
In the case of B5, in series [5], the Km came to 22 ± 3 µM, the kcat is 2.8 ± 0.2 s⁻¹ and the kcat/Km was found to be 130000 ± 20000 M⁻¹ s⁻¹.

B6: BaeA (3:N14A): BaeA variant with Asn14 of Saro_2873 mutated into Ala (protein)
chain: B2 chain 2
Turning to B6, in series [4] (β(R)-MPHPV), the “KM, fold higher than wild-type BaeA” value is given as ~12.5 fold and the “kcat, fold lower than (wild-type) BaeA” value is ~20 fold.

B7: Novosphingobium aromaticivorans BaeA, wild type, heterodimer of Saro_2872 (SEQ ID NO:40) and Saro_2873 (SEQ ID NO:42) (Novosphingobium aromaticivorans DSM … (protein)
chain 1: B2 chain 1
chain 2: B2 chain 2 with A14N
notes: His8 tag removed by TEV, SAIAG left on the N-terminus
Consider B7, for which, in series [6], the Km came out at 20 ± 3 µM, the kcat is 2.9 ± 0.3 s⁻¹ and the kcat/Km came to 150000 ± 30000 M⁻¹ s⁻¹.
